This note sets out measurements from the supplement of paper PMC7877785.

± gives the uncertainty stated by the source.

The data set in a line: self-splicing fitness, log relative to wild type (ln ratio); higher = more splicing; Tetrahymena group I intron in knt gene, E. coli kanamycin selection, DiMSum; sequences stand for … in CUCUCU…GGAGGGAAAAGUUAUCAGGCAUGCACCUGGUAGCUAGUCUUUAAACCAAUAGAUUGCAUCGGUUUAAAAGGCAAGACCGUCAAAUUGCGGGAAAGGGGUCAACAGCCGUUCAGUACCAAGUCUCAGGGGAAACUUUGAGAUGGCCUUGCAAAGGGUAUGGUAAUAAGCUGACGGACAUGGUCCUAACCACGCAGCCAAGUCCUAAGUCAACAGAUCUUCUGUUGAUAUGGAUGCAGUUCACAGACUAAAUGUCGGUCGGGGAAGAUGUAUUCUUCUCAUAAGAUAUAGUCGGACCUCUCCUUAAUGGGAGCUAGCGGAUGAAGUGAUGCAACACUGGAGCCGCUGGGAACUAAUUUGUAUGCGAAAGUAUAUUGAUUAGUUUUGGAGUACUCGUGGUCG
The procedure, abridged:
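The eight P1ex-region nucleotides of an intron in the knt kanamycin-resistance gene on pET-22b(+) were all randomised and the library put into E. coli BL21(DE3). Six replicate transformations were grown overnight at 37°C or 30°C on LB agar with or without 25 μg/mL kanamycin, together with 100 μg/mL carbenicillin, 50 μM IPTG and 0.2% rhamnose. Colonies were pooled and amplicon-sequenced on an Illumina HiSeq 2500. Fitness from DiMSum is the error-weighted combination of wild-type-normalised replicate fold changes, kanamycin over none.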

With CGACAGCAAUAUUACGUCCG, the “self-splicing fitness (ln)” value is, setting by setting: (30 °C) -1.31 ± 0.12; (37 °C) -1.04 ± 0.12.
For the sequence GACGAGCAAUAUUACGCCCA, the “self-splicing fitness (ln)” value reads like this: (30 °C) -2.06 ± 0.3; (37 °C) -2.17 ± 0.28.
As to AGAAAGCAAUAUUACGUUUA, the “self-splicing fitness (ln)” value by setting is: (30 °C) -1.96 ± 0.13; (37 °C) -1.04 ± 0.11.
Regarding GAUCAGCAAUAUUACGUCGC, the “self-splicing fitness (ln)” value is, setting by setting: (30 °C) -1.11 ± 0.1; (37 °C) 0.0313 ± 0.11.
For the sequence GGCCAGCAAUAUUACGGUUA, the “self-splicing fitness (ln)” value runs as follows: (30 °C) 0.0773 ± 0.069; (37 °C) -0.541 ± 0.067.
Taken in the same sequence, the figures for CACAAGCAAUAUUACGAAUA were -2.08 ± 0.27 and -2.71 ± 0.23.
On to CACCAGCAAUAUUACGGGUG, for which the “self-splicing fitness (ln)” value by setting is: (30 °C) -3.87 ± 0.15; (37 °C) -2.26 ± 0.15.
In the case of GACAAGCAAUAUUACGAGCC, the “self-splicing fitness (ln)” value is, setting by setting: (30 °C) -1.08 ± 0.18; (37 °C) -0.366 ± 0.15.
Taken in the same sequence, the figures for UUUUAGCAAUAUUACGUAGA were -2.06 ± 0.22 and -0.71 ± 0.24.
For UGCCAGCAAUAUUACGAAUA, the “self-splicing fitness (ln)” value was -2.53 ± 0.16 (30 °C) and -0.828 ± 0.12 (37 °C).
For the sequence GGCCAGCAAUAUUACGACAC, the “self-splicing fitness (ln)” value was -0.242 ± 0.1 (30 °C) and 0.0601 ± 0.17 (37 °C).
In the case of GUUUAGCAAUAUUACGCCUG, the “self-splicing fitness (ln)” value by setting is: (30 °C) -2.62 ± 0.25; (37 °C) -1.39 ± 0.26.
As for CUACAGCAAUAUUACGAUCC, the “self-splicing fitness (ln)” value (30 °C) is -4.14 ± 0.36 and the “self-splicing fitness (ln)” value (37 °C) is -1.44 ± 0.26.
GGACAGCAAUAUUACGCGGU: the “self-splicing fitness (ln)” value runs as follows: (30 °C) -4.03 ± 0.23; (37 °C) -1.6 ± 0.15.
As to AGUAAGCAAUAUUACGAAGA, the “self-splicing fitness (ln)” value was -2.88 ± 0.28 (30 °C) and -2.82 ± 0.35 (37 °C).
Taken in the same sequence, the figures for CCAAAGCAAUAUUACGCGGG were -4.4 ± 0.42 and -1.38 ± 0.16.
Taken in the same sequence, the figures for AUUCAGCAAUAUUACGUUCU were -0.926 ± 0.074 and -0.163 ± 0.1.
Take AUGUAGCAAUAUUACGUUUA: the “self-splicing fitness (ln)” value (30 °C) is -2.38 ± 0.13 and the “self-splicing fitness (ln)” value (37 °C) was -1.86 ± 0.12.
As to CUAGAGCAAUAUUACGACGC, the “self-splicing fitness (ln)” value (37 °C) is -0.974 ± 0.32.
As for AGAUAGCAAUAUUACGACAC, the “self-splicing fitness (ln)” value reads like this: (30 °C) -1.11 ± 0.12; (37 °C) -0.486 ± 0.15.
Turning to GAUAAGCAAUAUUACGAUUC, the “self-splicing fitness (ln)” value (30 °C) is -1.39 ± 0.14 and the “self-splicing fitness (ln)” value (37 °C) was -1.41 ± 0.17.
On to CAAUAGCAAUAUUACGAAAC, for which the “self-splicing fitness (ln)” value (37 °C) is -1.35 ± 0.24.
On to CCAAAGCAAUAUUACGGUAA, for which the “self-splicing fitness (ln)” value is -3.35 ± 0.29 (30 °C) and -2.91 ± 0.23 (37 °C).
Take UAUUAGCAAUAUUACGUCUC: the “self-splicing fitness (ln)” value (30 °C) is -2.7 ± 0.35 and the “self-splicing fitness (ln)” value (37 °C) was -1.5 ± 0.22.
On to UUGUAGCAAUAUUACGCUGG, for which the “self-splicing fitness (ln)” value runs as follows: (30 °C) -1.38 ± 0.15; (37 °C) -1.77 ± 0.23.
Taken in the same sequence, the figures for GACAAGCAAUAUUACGAUUG were -1.77 ± 0.078 and -1.54 ± 0.14.
On to CGGUAGCAAUAUUACGCAUA, for which the “self-splicing fitness (ln)” value was -4.37 ± 0.42 (30 °C) and -2.34 ± 0.26 (37 °C).
Consider ACGAAGCAAUAUUACGAGCU, for which the “self-splicing fitness (ln)” value by setting is: (30 °C) -1.56 ± 0.12; (37 °C) -0.76 ± 0.11.
For the sequence AGCGAGCAAUAUUACGGUUG, the “self-splicing fitness (ln)” value (30 °C) is -2.69 ± 0.24 and the “self-splicing fitness (ln)” value (37 °C) is -2.05 ± 0.21.
AUCUAGCAAUAUUACGGAGU: the “self-splicing fitness (ln)” value by setting is: (30 °C) -2.61 ± 0.28; (37 °C) -1.52 ± 0.2.
On to UGCAAGCAAUAUUACGGUAU, for which the “self-splicing fitness (ln)” value was -3.81 ± 0.21 (30 °C) and -1.15 ± 0.14 (37 °C).
As to ACGUAGCAAUAUUACGGGGA, the “self-splicing fitness (ln)” value (30 °C) is -1.93 ± 0.1 and the “self-splicing fitness (ln)” value (37 °C) is -1.83 ± 0.099.
Taken in the same sequence, the figures for CGACAGCAAUAUUACGUCUA were -0.367 ± 0.052 and 0.0477 ± 0.061.
As for AACGAGCAAUAUUACGCUUA, the “self-splicing fitness (ln)” value is, setting by setting: (30 °C) -2.86 ± 0.26; (37 °C) -1.31 ± 0.2.
Take GAGCAGCAAUAUUACGGCCC: the “self-splicing fitness (ln)” value was -1.51 ± 0.15 (30 °C) and -1.09 ± 0.19 (37 °C).
On to CUUCAGCAAUAUUACGGCAC, for which the “self-splicing fitness (ln)” value runs as follows: (30 °C) -4.13 ± 0.33; (37 °C) -0.568 ± 0.13.
Regarding GUCUAGCAAUAUUACGGAAU, the “self-splicing fitness (ln)” value is, setting by setting: (30 °C) -0.979 ± 0.11; (37 °C) 0.135 ± 0.11.
Consider GUGGAGCAAUAUUACGUGUG, for which the “self-splicing fitness (ln)” value was -2.65 ± 0.21 (30 °C) and -2.65 ± 0.23 (37 °C).
For AUGCAGCAAUAUUACGACGG, the “self-splicing fitness (ln)” value runs as follows: (30 °C) -1.74 ± 0.11; (37 °C) -1.41 ± 0.14.
On to UCAUAGCAAUAUUACGGUUA, for which the “self-splicing fitness (ln)” value runs as follows: (30 °C) -1.37 ± 0.14; (37 °C) -0.36 ± 0.11.
Turning to GCUGAGCAAUAUUACGUGGU, the “self-splicing fitness (ln)” value reads like this: (30 °C) -3.63 ± 0.32; (37 °C) -2.22 ± 0.4.
UGGAAGCAAUAUUACGUCCG: the “self-splicing fitness (ln)” value (30 °C) is -2.72 ± 0.21 and the “self-splicing fitness (ln)” value (37 °C) was -2.41 ± 0.22.
For GUGCAGCAAUAUUACGCAUG, the “self-splicing fitness (ln)” value was -3.11 ± 0.29 (30 °C) and -0.586 ± 0.16 (37 °C).
Taken in the same sequence, the figures for AGGAAGCAAUAUUACGAGGC were -3.01 ± 0.3 and -2.31 ± 0.34.
As to CGACAGCAAUAUUACGCUCU, the “self-splicing fitness (ln)” value is, setting by setting: (30 °C) -1.69 ± 0.11; (37 °C) -0.145 ± 0.11.
Consider ACAAAGCAAUAUUACGUACA, for which the “self-splicing fitness (ln)” value by setting is: (30 °C) -1.6 ± 0.083; (37 °C) -0.786 ± 0.089.
Regarding AAUCAGCAAUAUUACGUUAC, the “self-splicing fitness (ln)” value is -2.78 ± 0.13 (30 °C) and -1.08 ± 0.1 (37 °C).
Consider UUUUAGCAAUAUUACGCAUC, for which the “self-splicing fitness (ln)” value is -3.19 ± 0.31 (30 °C) and -2.15 ± 0.23 (37 °C).
Take AAACAGCAAUAUUACGUACA: the “self-splicing fitness (ln)” value was -1.23 ± 0.073 (30 °C) and -0.0501 ± 0.082 (37 °C).
Taken in the same sequence, the figures for AACAAGCAAUAUUACGUUCA were -1.41 ± 0.053 and -0.805 ± 0.063.
Taken in the same sequence, the figures for UUGAAGCAAUAUUACGUGUC were -2.93 ± 0.21 and -2.47 ± 0.24.
On to CGGGAGCAAUAUUACGAAAG, for which the “self-splicing fitness (ln)” value reads like this: (30 °C) -2.47 ± 0.42; (37 °C) -2.55 ± 0.42.
Taken in the same sequence, the figures for GUAAAGCAAUAUUACGUCUG were -1.56 ± 0.11 and 0.0989 ± 0.11.
Taken in the same sequence, the figures for GUGUAGCAAUAUUACGUGCG were -1.8 ± 0.18 and -0.374 ± 0.19.
In the case of CAUGAGCAAUAUUACGACUU, the “self-splicing fitness (ln)” value (30 °C) was -3.95 ± 0.32 and the “self-splicing fitness (ln)” value (37 °C) is -3.81 ± 0.36.
For the sequence GUGCAGCAAUAUUACGGUCC, the “self-splicing fitness (ln)” value (30 °C) is -0.146 ± 0.15 and the “self-splicing fitness (ln)” value (37 °C) turned out to be 0.0655 ± 0.22.
As to ACGAAGCAAUAUUACGGAGA, the “self-splicing fitness (ln)” value (30 °C) is -2.86 ± 0.2 and the “self-splicing fitness (ln)” value (37 °C) is -2.42 ± 0.22.
Taken in the same sequence, the figures for UCCAAGCAAUAUUACGUGCC were -3.87 ± 0.36 and -2.28 ± 0.26.
For the sequence CGAUAGCAAUAUUACGUAGC, the “self-splicing fitness (ln)” value is, setting by setting: (30 °C) -3.25 ± 0.19; (37 °C) -2.68 ± 0.34.
As to UGGCAGCAAUAUUACGGCAA, the “self-splicing fitness (ln)” value (30 °C) stood at 0.308 ± 0.22 and the “self-splicing fitness (ln)” value (37 °C) is 0.661 ± 0.19.
